Tests used:
[1] = Fluorescence polarization (FP) binding to fluorescein labeled STX; conditions: T = 298K
[2] = format: binding; conditions: 1.1 μM Sxph, 0-20 μM STX
[3] = test system: PtNaV1.4; assay: Two-electrode voltage clamp: Sxph rescue of PtNaV1.4 from STX block in Xenopus oocytes; format: cell-based, Phyllobates terribilis; conditions: [Sxph]:[STX] ratio, 100 nM STX
[4] = Isothermal titration calorimetry (ITC) of STX into Sxph; format: binding; conditions: 25° C.
Procedure: ITC measurements were performed at 25° C. using a MicroCal PEAQ-ITC calorimeter (Malvern Panalytical). […]. This STX stock was diluted with the SEC buffer to prepare 100 μM or 300 μM STX solutions having a final buffer composition of 135 mM NaCl, 9 mM HEPES, pH 7.4. […]. The calorimetric experiment settings were: reference power, 5 μcal/s; spacing between injections, 150 s; stir speed 750 rpm; and feedback mode, high. Data were analyzed using MicroCal PEAQ-ITC Analysis Software (Malvern Panalytical) using a single binding site model. The heat of dilution from titrations of 100 μM STX in 135 mM NaCl, 9 mM HEPES, pH 7.4 into 135 mM NaCl, 9 mM HEPES, pH 7.4 was subtracted from each experiment to correct the baseline.

B1: RcSxph: Saxiphilin of Rana (Lithobates) catesbeianus, American bullfrog, SEQ ID NO:1 (protein)
chain: MAPTFQTALFFTIISLSFAAPNAKQVRWCAISDLEQKKCNDLVGSCNVPDITLVCVLRSSTEDCMTAIKDGQADAMFLDSGEVYEASKDPYNLKPIIAEPYSSNRDLQKCLKERQQALAKKMIGHYIPQCDEKGNYQPQQCHGSTGHCWCVNAMGEKISGTNTPPGQTRATCERHELPKCLKERQVALGGDEKVLGRFVPQCDEKGNYEPQQFHGSTGYSWCVNAIGEEIAGTKTPPGKIPATCQKHDLVTTCHYAVAMVKKSSAFQFNQLKGKRSCHSGVSKTDGWKALVTVLVEKKLLSWDGPAKESIQRAMSKFFSVSCIPGATQTNLCKQCKGEEGKNCKNSHDEPYYGNYGAFRCLKEDMGDVAFLRSTALSDEHSEVYELLCPDNTRKPLNKYKECNLGTVPAGTVVTRKISDKTEDINNFLMEAQKRQCKLFSSAHGKDLMFDDSTLQLALLSSEVDAFLYLGVKLFHAMKALTGDAHLPSKNKVRWCTINKLEKMKCDDWSAVSGGAIACTEASCPKGCVKQILKGEADAVKLEVQYMYEALMCGLLPAVEEYHNKDDFGPCKTPGSPYTDFGTLRAVALVKKSNKDINWNNIKGKKSCHTGVGDIAGWVIPVSLIRRQNDNSDIDSFFGESCAPGSDTKSNLCKLCIGDPKNSAANTKCSLSDKEAYYGNQGAFRCLVEKGDVAFVPHTVVFENTDGKNPAVWAKNLKSEDFELLCLDGSRAPVSNYKSCKLSGIPPPAIVTREESISDVVRIVANQQSLYGRKGFEKDMFQLFSSNKGNNLLFNDNTQCLITFDRQPKDIMEDYFGKPYYTTVYGASRSAMSSELISACTIKHC
With B1 the “[…]G (kcal mol^−1) relative to RcSxph” value ([1]; […]G = RT ln (Kd(XSxph)/Kd(RcSxph))) was 0 kcal/mol, the “[…]G (kcal mol^−1) relative to wild-type RcSxph” value ([1]; […]G = RT ln (KdSxph mutant/KdSxph)) was 0 kcal/mol and the “DTm ([…]Tm=TmSxph+20 μM toxin−TmSxph), STX” value [2] was 3.6 °C. For the same molecule, the “Effective Rescue Ratio50 (ERR50)” value [3] was 1.07±0.02, the “[…]G” value [4] was -12.3 ± 0.5 kcal/mol and the “[…]H (kcal mol^−1), binding enthalpy” value [4] was -16.1 ± 0.2 kcal/mol. The “[…]S (cal mol^−1 K^−1)” value [4] was −12.7 ± 0.9 cal mol^−1 K^−1 and the “[…]H (kcal mol^−1), binding enthalpy” value ([4]; listed as RcSxph WT) was -16.1 ± 0.2 kcal/mol.

— patent publication US20260063625A1, “COMPOSITIONS FOR AND METHODS OF DETECTING FOOD TOXINS” (priority 2022, published 2026)
